Measured values from patent US20250304706A1 (Astellas, published 2025).

B1: BTE-0151 (bispecific antibody, human IgG1, kappa, L234A L235A)
heavy: QVQLQQWGAGLLKPSETLSLTCAVYGGSFSPYYWSWIRQPPGKGLEWIGEINHSGSTNYNPSLKSRVTISVDTSKNQFSLKLSSVTAADTAVYYCARRAGDFDYWGQGTLVTVSSASTKGPSVFPLAPSSKSTSGGTAALGCLVKDYFPEPVTVSWNSGALTSGVHTFPAVLQSSGLYSLSSVVTVPSSSLGTQTYICNVNHKPSNTKVDKKVEPKSCDKTHTCPPCPAPEAAGGPSVFLFPPKPKDTLMISRTPEVTCVVVDVSHEDPEVKFNWYVDGVEVHNAKTKPREEQYNSTYRVVSVLTVLHQDWLNGKEYKCKVSNKALAAPIEKTISKAKGQPREPQVYTLPPSRDELTKNQVSLSCAVKGFYPSDIAVEWESNGQPENNYKTTPPVLDSDGSFFLVSKLTVDKSRWQQGNVFSCSVMHEALHNHYTQKSLSLSPGK
light: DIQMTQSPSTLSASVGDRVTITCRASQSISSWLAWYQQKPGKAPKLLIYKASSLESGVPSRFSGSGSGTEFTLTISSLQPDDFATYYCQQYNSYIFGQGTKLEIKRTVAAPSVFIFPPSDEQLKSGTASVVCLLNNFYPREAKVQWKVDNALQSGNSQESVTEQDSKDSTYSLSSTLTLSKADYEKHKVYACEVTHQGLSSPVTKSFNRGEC
scFv: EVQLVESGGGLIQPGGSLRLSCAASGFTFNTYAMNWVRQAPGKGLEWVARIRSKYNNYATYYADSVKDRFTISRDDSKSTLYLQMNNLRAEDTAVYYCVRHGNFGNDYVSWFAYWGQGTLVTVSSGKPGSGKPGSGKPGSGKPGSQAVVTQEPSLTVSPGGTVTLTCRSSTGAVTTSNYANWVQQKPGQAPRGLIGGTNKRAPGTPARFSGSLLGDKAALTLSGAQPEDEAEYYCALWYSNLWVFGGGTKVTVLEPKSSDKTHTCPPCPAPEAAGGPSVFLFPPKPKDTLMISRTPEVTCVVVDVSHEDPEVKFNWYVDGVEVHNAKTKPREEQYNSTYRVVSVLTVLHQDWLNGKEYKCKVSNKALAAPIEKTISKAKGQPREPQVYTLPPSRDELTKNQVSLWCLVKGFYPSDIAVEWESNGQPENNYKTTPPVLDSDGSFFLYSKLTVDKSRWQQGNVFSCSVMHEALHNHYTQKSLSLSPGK
notes: anti-CD37/anti-CD3
B2: BTE-0144 (bispecific antibody, human IgG1, kappa, L234A L235A)
heavy: B1 heavy
light: not shown
scFv: not shown
notes: anti-CD37/anti-CD3
B3: BTE-0146 (bispecific antibody, human IgG1, kappa, L234A L235A)
heavy: B1 heavy
light: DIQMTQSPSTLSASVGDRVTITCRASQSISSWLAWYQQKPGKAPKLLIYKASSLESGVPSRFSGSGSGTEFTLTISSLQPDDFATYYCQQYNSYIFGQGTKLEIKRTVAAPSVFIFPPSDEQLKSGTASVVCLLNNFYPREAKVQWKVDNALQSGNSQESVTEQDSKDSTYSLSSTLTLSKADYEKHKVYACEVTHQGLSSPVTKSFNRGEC
scFv: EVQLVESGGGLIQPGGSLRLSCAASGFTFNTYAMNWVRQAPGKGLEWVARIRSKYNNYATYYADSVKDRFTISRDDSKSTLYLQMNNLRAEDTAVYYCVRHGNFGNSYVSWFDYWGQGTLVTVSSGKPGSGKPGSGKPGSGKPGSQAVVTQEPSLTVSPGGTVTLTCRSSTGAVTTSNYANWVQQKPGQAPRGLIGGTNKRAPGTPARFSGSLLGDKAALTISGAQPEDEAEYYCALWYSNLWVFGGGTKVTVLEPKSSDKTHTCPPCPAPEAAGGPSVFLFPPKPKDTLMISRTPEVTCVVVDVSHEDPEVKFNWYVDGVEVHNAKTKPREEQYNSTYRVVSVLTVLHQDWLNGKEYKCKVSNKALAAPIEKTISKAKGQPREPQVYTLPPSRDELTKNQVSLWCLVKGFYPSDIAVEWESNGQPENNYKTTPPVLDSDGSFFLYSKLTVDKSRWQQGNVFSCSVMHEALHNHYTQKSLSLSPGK
notes: anti-CD37/anti-CD3
B4: BTE-0141 (bispecific antibody, human IgG1, kappa, L234A L235A)
heavy: B1 heavy
light: not shown
scFv: not shown
notes: anti-CD37/anti-CD3
B5: BTE-0137 (bispecific antibody, human IgG1, kappa, L234A L235A)
heavy: B1 heavy
light: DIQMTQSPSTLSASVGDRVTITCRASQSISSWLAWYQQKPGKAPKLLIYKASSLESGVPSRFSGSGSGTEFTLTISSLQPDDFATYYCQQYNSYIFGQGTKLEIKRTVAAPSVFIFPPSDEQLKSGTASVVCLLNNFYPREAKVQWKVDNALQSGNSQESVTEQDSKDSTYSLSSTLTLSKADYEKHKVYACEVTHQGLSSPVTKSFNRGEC
scFv: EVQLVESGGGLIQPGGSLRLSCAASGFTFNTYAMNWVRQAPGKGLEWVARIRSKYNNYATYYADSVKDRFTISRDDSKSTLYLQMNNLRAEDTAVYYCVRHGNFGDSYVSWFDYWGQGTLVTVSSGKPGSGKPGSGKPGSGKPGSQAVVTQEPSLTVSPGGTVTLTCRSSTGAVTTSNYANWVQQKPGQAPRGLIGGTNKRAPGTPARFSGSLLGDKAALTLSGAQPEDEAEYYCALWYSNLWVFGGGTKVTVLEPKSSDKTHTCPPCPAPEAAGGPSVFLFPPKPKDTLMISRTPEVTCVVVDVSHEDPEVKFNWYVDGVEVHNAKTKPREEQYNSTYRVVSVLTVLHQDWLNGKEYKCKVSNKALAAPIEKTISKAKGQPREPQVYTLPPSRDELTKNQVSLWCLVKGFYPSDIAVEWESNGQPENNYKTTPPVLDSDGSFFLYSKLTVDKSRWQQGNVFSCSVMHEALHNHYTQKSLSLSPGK
notes: anti-CD37/anti-CD3
B6: BTE-0152 (bispecific antibody, human IgG1, kappa, L234A L235A)
heavy: B1 heavy
light: not shown
scFv: not shown
notes: anti-CD37/anti-CD3
B7: BTE-0147 (bispecific antibody, human IgG1, kappa, L234A L235A)
heavy: B1 heavy
light: not shown
scFv: not shown
notes: anti-CD37/anti-CD3
B8: BTE-0136 (bispecific antibody, human IgG1, kappa, L234A L235A)
heavy: B1 heavy
light: not shown
scFv: not shown
notes: anti-CD37/anti-CD3
B9: BTE-0145 (bispecific antibody, human IgG1, kappa, L234A L235A)
heavy: B1 heavy
light: not shown
scFv: not shown
notes: anti-CD37/anti-CD3
B10: BTE-0138 (bispecific antibody, human IgG1, kappa, L234A L235A)
heavy: B1 heavy
light: not shown
scFv: not shown
notes: anti-CD37/anti-CD3
B11: BTE-0143 (bispecific antibody, human IgG1, kappa, L234A L235A)
heavy: B1 heavy
light: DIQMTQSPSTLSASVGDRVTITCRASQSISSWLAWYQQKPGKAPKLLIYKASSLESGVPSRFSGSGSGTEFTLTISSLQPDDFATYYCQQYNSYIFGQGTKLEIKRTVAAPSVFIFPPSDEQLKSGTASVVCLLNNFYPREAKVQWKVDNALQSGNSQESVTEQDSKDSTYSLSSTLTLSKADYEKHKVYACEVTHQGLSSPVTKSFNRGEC
scFv: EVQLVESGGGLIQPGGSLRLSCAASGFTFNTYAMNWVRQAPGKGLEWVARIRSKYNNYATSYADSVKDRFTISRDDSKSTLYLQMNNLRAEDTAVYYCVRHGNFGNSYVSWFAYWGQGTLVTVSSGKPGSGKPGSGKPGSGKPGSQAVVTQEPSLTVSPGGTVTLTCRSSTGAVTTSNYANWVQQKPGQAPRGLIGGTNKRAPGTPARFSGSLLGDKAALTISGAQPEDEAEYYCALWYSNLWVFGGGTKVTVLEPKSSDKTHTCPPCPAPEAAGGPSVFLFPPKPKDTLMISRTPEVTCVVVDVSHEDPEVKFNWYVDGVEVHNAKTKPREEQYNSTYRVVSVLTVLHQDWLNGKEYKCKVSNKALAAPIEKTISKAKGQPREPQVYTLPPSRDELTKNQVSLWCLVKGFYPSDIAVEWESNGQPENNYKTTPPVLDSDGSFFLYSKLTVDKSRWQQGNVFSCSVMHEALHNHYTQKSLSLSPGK
notes: anti-CD37/anti-CD3
B12: BTE-0140 (bispecific antibody, human IgG1, kappa, L234A L235A)
heavy: B1 heavy
light: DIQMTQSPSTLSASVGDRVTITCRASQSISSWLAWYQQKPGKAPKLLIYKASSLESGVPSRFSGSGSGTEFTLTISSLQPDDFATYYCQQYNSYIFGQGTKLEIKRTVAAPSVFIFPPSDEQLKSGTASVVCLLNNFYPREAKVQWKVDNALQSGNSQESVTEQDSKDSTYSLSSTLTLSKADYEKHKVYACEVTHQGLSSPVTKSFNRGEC
scFv: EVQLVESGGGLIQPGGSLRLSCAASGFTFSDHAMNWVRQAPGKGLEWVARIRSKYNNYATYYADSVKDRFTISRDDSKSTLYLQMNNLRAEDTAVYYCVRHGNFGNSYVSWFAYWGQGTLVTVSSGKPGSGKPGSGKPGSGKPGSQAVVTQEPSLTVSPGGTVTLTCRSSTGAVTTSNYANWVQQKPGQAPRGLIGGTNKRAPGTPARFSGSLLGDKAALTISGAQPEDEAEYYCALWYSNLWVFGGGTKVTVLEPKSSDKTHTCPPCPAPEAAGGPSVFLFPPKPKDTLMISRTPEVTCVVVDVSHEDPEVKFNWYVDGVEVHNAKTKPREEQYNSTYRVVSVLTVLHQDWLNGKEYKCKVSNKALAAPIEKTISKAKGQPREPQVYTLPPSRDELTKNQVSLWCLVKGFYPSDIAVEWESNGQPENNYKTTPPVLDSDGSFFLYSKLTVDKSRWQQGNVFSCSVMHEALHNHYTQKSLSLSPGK
notes: anti-CD37/anti-CD3
B13: BTE-0149 (bispecific antibody, human IgG1, kappa, L234A L235A)
heavy: B1 heavy
light: not shown
scFv: not shown
notes: anti-CD37/anti-CD3
B14: BTE-0142 (bispecific antibody, human IgG1, kappa, L234A L235A)
heavy: B1 heavy
light: not shown
scFv: not shown
notes: anti-CD37/anti-CD3
B15: BTE-0139 (bispecific antibody, human IgG1, kappa, L234A L235A)
heavy: B1 heavy
light: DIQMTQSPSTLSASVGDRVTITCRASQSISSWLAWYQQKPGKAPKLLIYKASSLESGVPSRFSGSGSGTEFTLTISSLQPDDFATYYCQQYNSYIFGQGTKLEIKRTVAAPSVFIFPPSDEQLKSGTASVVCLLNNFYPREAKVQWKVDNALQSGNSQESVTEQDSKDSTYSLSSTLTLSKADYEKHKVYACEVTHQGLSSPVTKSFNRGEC
scFv: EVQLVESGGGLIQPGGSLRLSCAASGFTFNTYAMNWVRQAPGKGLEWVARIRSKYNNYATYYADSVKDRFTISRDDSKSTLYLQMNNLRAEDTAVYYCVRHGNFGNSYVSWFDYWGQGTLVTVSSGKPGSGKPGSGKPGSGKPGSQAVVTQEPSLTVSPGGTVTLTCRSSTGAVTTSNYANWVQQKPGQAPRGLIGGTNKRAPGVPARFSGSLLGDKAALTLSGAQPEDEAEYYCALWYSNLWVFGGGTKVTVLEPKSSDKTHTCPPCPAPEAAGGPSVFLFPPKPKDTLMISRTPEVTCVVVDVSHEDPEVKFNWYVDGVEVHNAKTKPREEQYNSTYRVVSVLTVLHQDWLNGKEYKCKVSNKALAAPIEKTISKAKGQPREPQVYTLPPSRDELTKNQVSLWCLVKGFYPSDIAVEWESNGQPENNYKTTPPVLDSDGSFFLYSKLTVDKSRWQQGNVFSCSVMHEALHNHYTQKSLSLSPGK
notes: anti-CD37/anti-CD3
B16: BTE-0148 (bispecific antibody, human IgG1, kappa, L234A L235A)
heavy: B1 heavy
light: not shown
scFv: not shown
notes: anti-CD37/anti-CD3

These binders were tested against T1, CD3εδ complex protein (human; alpaca, UniProt P07766 23-126; P04234 22-105) (assay: ELISA, CD3 complex immobilized).
T1 construct: they are not part of the secreted protein; also called human CD3; CD386 complex protein
Protocol: Binding activities of the anti-TSPAN8/anti-CD3 bispecific antibodies BTE-0001 to BTE-0067 to CD3 were evaluated by the ELISA. ELISA was performed according to a conventional method. The […] complex protein obtained in Example 1-3 was immobilized on a plate. BTE-0001 to BTE-0067 were used as the test antibodies. As a secondary antibody, Goat anti-Human IgG Fc, Multi-Species SP ads-HRP (2014-05, available from SouthernBiotech) was used. TMB+Substrate-Chromogen (S1599, available from Dako) was used as the detection reagent. Infinite M200pro (available from Tecan) was used to measure the absorbance. The EC50 values were calculated using variable slope model (four parameters) in GraphPad Prism with the maximum value in the same plate fixed at the top and the minimum value in the blank in the same plate fixed at the bottom. Since BTE-0001 was always measured in each plate as a control, only the EC50 value of BTE-0001 was expressed as the average value of a plurality of plates. […]

T1 sequence (P07766 23-126 limits assumed, stated change not applied, form in doubt, chain 1 of 2): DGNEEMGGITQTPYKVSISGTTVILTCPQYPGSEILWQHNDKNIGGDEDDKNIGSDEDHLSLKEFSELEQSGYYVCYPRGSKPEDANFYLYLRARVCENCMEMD
T1 sequence (P04234 22-105 limits assumed, stated change not applied, form in doubt, chain 2 of 2): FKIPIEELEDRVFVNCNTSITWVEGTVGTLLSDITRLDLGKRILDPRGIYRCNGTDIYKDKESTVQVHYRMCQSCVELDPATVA

| Binder | EC50 [µg/mL] |
| --- | --- |
| B1 | 0.0747 |
| B2 | 0.138 |
| B3 | 0.488 |
| B4 | 0.029 |
| B5 | 1.6 |
| B6 | 0.36 |
| B7 | 0.0317 |
| B8 | 0.0669 |
| B9 | 0.0854 |
| B10 | 0.071 |
| B11 | 0.0644 |
| B12 | 0.205 |
| B13 | 0.209 |
| B14 | 0.292 |
| B15 | 0.444 |
| B16 | 0.0364 |
